In the supplement of paper PMC9170038:

Legend:
MS2 coat protein [1] = assay: apparent KD of MS2 coat protein; higher = weaker reporter binding; settings: Eterna round: R101
Protocol: (§1)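 RNA-MaP: designed FMN/MS2 RNA switches (84 nt design region) are transcribed on-chip within common flanks and titrated with SNAP-549-labelled MS2 coat protein (about 1-3000 nM) in 100 mM Tris pH 7.5, 80 mM KCl, 4 mM MgCl2, without or with 200 uM FMN. Median apparent KD per design; activation ratio = KD,OFF / KD,ON.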

MS2 coat protein [2] = assay: apparent KD of MS2 coat protein; designed switch direction (-1 OFF switch, 1 ON switch): 1; higher = weaker reporter binding; settings: Eterna round: R98
Protocol: as §1

Sequence	apparent KD of MS2 coat protein (MS2 coat protein [1]; input ligand: FMN 200 uM)	apparent KD of MS2 coat protein (MS2 coat protein [1]; input ligand: none)	apparent KD of MS2 coat protein (MS2 coat protein [2]; input ligand: FMN 200 uM)	apparent KD of MS2 coat protein (MS2 coat protein [2]; input ligand: none)
CCUGCACUUCAAGGAUAUCCAGUCGUUUCGACUGGAGAAGGUGAGGAUCACCCACCUAGCCUGACGUUUGUCAGGCAUGCAGGU [#AddUracilToBrourdLoops 3 - Jieux - Exclusion NG1] (puzzle (switch architecture): Exclusion NG 1)	8.78 nM	8.76 nM	–	–
UAGAAGCUCACAGGAUAUCAGUAUGCGCGAUCUAACGCAUUAAUGAACUGCUGAGAAGGGUGAGACAUGAGGAUCACCCAUGUA [Enesraadi] (puzzle (switch architecture): Small Loop Same State NG 1)	395 nM	236 nM	–	–
GGUCCAACAUGAGGAUAUGGCACCUUAUUGGUGCCAGAAGGCGUGUCUAUAGACAUGAGGAUCACCCAUGUAAUAAAUUGGACC [SameState #22 NG1]	–	–	45.4 nM	796 nM
CCGGAAACGGGUAGCUGACAUGAGGAUCACCCAUGUGAUACACAGGAUAUGGAUCCUAAUUGGAUCCAGAAGGGUGUCAGCUAC [Mat - Same State NG 3 - JL Mod - D84]	–	–	130 nM	1270 nM
AAAACAUACCGAGGAUAUUCAUAUAAUAAAUAAACAUGAGGAUCACCCAUUUGGCAAAAGCCUAGGGAGAAGGCGGAAUGCUAA [salish99_SSNG2_r2_119]	–	–	658 nM	–
CGAGACACUUGAGGAUAUGCUCAGGAAUACUGAGCAGAAGGCAGGAAAACCUGAGGAUCACCCAGGUAACUGGAAAGUCUCGAA [Same State NG1 - A3C, U17G Submission 5E-G46A]	–	–	16.9 nM	19.6 nM
AUAAUAACUUGAGGAUAUGCUCAGGAAUACUGAGCAGAAGGCAGGGAAACCUGAGGAUCACCCAGGUGAAUAAUAAUAAUAAUA [Same State NG1 - A3C, U17G Submission 1A]	–	–	18.3 nM	23.4 nM
CUAAUAUAGUGAGGAUAUGCACAGGAUCACCGUGUAGAAGGCAUCAGGUAGAAGGUGCAGAGGAUCACCCUGUAAGGAUAUACC [pwkr2 ssNG1 DX.4]	–	–	32.4 nM	69.4 nM
AUAAUAACUUGAGGAUAUGCUCAGGAAUACUGAGCAGAAGGCAGGGAAACCUGAGGAUCACCCAGGUAACUGGAAUAAUAAUAA [Same State NG1 - A3C, U17G Submission 4A]	–	–	25.6 nM	25.8 nM
AAAACAUGAGGAUCACCCAUGUAAGAAUAAUUAAUUAUAAGUGAGGAUAUAUAAAUUAUAAAAUUGUAGAAGGCACUGGGUAUC [JR_SSNG3_Sub083]	–	–	83.6 nM	71 nM
GGACUCACUUGAGGAUAUCGAGUGGAAUACACUCGAGAAGGCAGGAAAACCUGAGGAUCACCCAGGUAAGAGUCCAAUAAUAAU [Same State NG1 - A3C, U17G Submission 3C]	–	–	17.1 nM	17.9 nM
ACUAGAAACGGGCAAUAACACAUGAGGAUCACCCAUGUGACACAGGAUAUAACCAGAUCAGAAAGUUAGAAGGGUGAGCCCGCA [Edraed Mod 1 - Jieux - Same State NG3]	–	–	23.8 nM	23.7 nM
GCUGCUAUCGCAGGAUAUUACAUGGGAAAUAAAACAUGAGGAUCACCCAUGUUAAAUAUCGUAAAUAAGAAGGGCGAUAGCAGC [Lame State 2 - Jieux - Same State NG 2]	–	–	178 nM	1120 nM
CAUGUCCUCACAGGAUAUGCUGGACUUUGUCCAGCAGAAGGGUGAUAACAUGAGGAUCACCCAUGUGGACAUGAUAUAUUUAAG [Mat - Same State NG 1 - Eli mod - D95]	–	–	623 nM	106 nM
CUGCAAAUCUUAGGAUAUGCUCAGGAAUACUGAGCAGAAGGAAGAUAUACCUGAGGAUCACCCAGGUAAAACUGGAGCAGAAUA [Same State NG1 - A3C, U17G Submission 8G U68A, U7A]	–	–	24.3 nM	26.6 nM
